Source: paper PMC9900621, “5-Formyltetrahydrofolate promotes conformational remodeling in a methylenetetrahydrofolate reductase active site and inhibits its activity” (The Journal of Biological Chemistry, 2022)
Substitutions are numbered along the chain they refer to.

Key:
[1] = molecular target: T1, methylenetetrahydrofolate reductase (tMTHFR) (Thermus thermophilus, UniProt Q5SLG6, E18Q); test: crystal structure ([…] Å, pH […]); format: binding
T1 construct: gene TTHA0327; recombinant, uncleavable C-terminal hexa-Histidine tag
T1 sequence (Q5SLG6 1-296 E18Q): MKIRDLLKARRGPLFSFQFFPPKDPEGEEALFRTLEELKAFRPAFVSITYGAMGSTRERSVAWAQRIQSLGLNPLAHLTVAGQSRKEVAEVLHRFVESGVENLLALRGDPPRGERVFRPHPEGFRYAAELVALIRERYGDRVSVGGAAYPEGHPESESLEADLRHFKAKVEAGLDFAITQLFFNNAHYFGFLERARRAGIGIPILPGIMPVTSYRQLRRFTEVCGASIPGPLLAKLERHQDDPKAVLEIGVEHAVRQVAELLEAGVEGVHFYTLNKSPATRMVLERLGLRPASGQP

[2] = molecular target: the molecule itself; test: crystal structure; tMTHFR cocrystallised with CHO-H4folate, FAD-replete; reservoir 0.1 M sodium acetate pH 4.5, 2.5 M NaCl, 0.2 M lithium sulfate, 1.2% myo-inositol, 4 °C; 1.45 Å
[3] = molecular target: the molecule itself; test: crystal structure; folate-free tMTHFR Glu18Gln, as purified, with 0.6 mM CH3-H4folate; reservoir 0.1 M Hepes pH 7.8, 1 M LiCl, 20% PEG 6000, 20 °C, hanging drop; 1.90 Å

`Cc1cc2nc3c(=O)[nH]c(=O)nc-3n(C[C@H](O)[C@H](O)[C@H](O)COP(=O)(O)OP(=O)(O)OC[C@H]3O[C@@H](n4cnc5c(N)ncnc54)[C@H](O)[C@@H]3O)c2cc1C` [FAD] was tested, and the “crystal structure (1.90 Å, pH 7.8)” value [1] was “presence of a small-molecule was found in the active site near FAD”.

B1: Thermus thermophilus HB8 methylenetetrahydrofolate reductase (tMTHFR), wild type (enzyme)
chain: T1 sequence (Q5SLG6 1-296 E18Q) with Q18E
notes: Uncleavable hexa-histidine tag on the C-terminus; Crystallised FAD-replete, with or without CHO-H4folate; also called tMTHFR^wt; MTHFR^wt; not shown: His6, C-terminal, kept
B1: binds [2].

B2: Thermus thermophilus HB8 methylenetetrahydrofolate reductase Glu18Gln mutant (enzyme)
chain: T1 sequence (Q5SLG6 1-296 E18Q)
notes: methylenetetrahydrofolate reductase of Thermus thermophilus HB8 with Glu18Gln, expressed from pET(tMR^Glu18Gln-H); Uncleavable hexa-histidine tag on the C-terminus; Crystallised as purified, with 0.6 mM CH3-H4folate that could not be assigned in the density; also called tMTHFR^Glu18Gln; MTHFR^Glu18Gln; not shown: His6, C-terminal, kept
B2: binds [3].
